Results taken from patent publication US20190263922A1 (TIGA TX, published 2019).
Ends that are not written are not given here.

Tests used:
[1] = molecular target: T1, linear peptide NSPSTQYGPANPSEK (human, also: covalently linked to the plate); assay: PepScan ELISA, 1 ug/mL mAb on plate-linked peptide
T1 peptide: NSPSTQYGPANPSEK
Procedure: (§1) Recognition of peptides by the CD20 mAb was assessed in a PepScan-based ELISA as previously described. ⁽²⁰⁾ Briefly, 1 μg/mL mAb was added to plates with covalently linked peptides and incubated overnight at 4° C. After extensive washing, bound mAb was detected with a HRP-linked rabbit-anti-mIgG (DakoCytomation) for 1 h at 25° C. Unbound detection Ab was washed away. Plates were developed using ABTS substrate and color development quantified using a CCD camera and an image-processing system.

[2] = molecular target: T2, circular peptide YNCEPANPSEKNSPSTQYCYS (human, circular (cysteine-based loop, Pepscan technology); covalently linked to the plate); assay: PepScan ELISA, 1 ug/mL mAb on plate-linked peptide
T2 peptide: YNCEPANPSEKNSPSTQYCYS
Procedure: as §1

human CD20 [3] = molecular target: T3, human CD20 (human, UniProt P11836 1-297); assay: LigandTracer Green, 10 nM FITC-labeled mAb on SKBR3-CD20 cells, OneToOne fit, competitive dissociation (100 nM unlabeled mAb of the same clone)
T3 construct: whole, on cells; Always presented on cells; also called MS4A1; CD20 WT
T3 sequence (looked up): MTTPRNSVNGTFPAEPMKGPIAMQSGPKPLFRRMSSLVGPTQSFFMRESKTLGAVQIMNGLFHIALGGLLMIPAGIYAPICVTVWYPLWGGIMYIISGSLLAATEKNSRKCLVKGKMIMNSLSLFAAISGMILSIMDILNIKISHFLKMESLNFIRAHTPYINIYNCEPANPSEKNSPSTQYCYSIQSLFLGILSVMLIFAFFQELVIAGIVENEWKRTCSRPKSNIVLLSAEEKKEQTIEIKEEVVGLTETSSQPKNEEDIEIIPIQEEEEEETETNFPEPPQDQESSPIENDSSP
Procedure: (§2) Kinetics analysis of interactions between the mAbs and CD20 was performed by using the LigandTracer green Technology (Ridgeview Instruments AB). 10⁶ SKBR3-CD20 cells were seeded on one side of a 10 cm culture dish (Greiner) as target cell area and association of 10 nM FITC-labeled CD20 mAb was measured. For non-competitive or competitive dissociation, labeled mAb solution was replaced by RPMI culture medium or 100 nM unlabeled mAb of the same clone, respectively. Analysis was performed using an OneToOne fitting model in TraceDrawer (Ridgeview Instruments AB).
(§3) A slow Ab off-rate might favor the formation of Ab-Clq complexes, the first component of the classical complement pathway. […] To characterize interaction kinetics and affinity of mAbs, we used the LigandTracer technology to record real-time binding and dissociation of Abs to cellular receptors.

human CD20 [4] = molecular target: T3, human CD20; assay: LigandTracer Green, 10 nM FITC-labeled mAb on SKBR3-CD20 cells, OneToOne fit, non-competitive dissociation
Procedure: as §2, §3

B1: m1 (mIgG2c-CD20 mAb) (antibody, V domains shown)
VH: QAYLQQSGAELVRPGASVKMSCKASGYTFTSYNLHWVKQTPRQGLEWIGAIYPGNGDTSYNQKFKGKATLTVDKSSSTAYMQLSRLTSEDSAVYFCARSNSYGSTYWYFDVWGTGTTVTVSS
VL: QIVLSQSPAVLFASPGEKVTMTCRARSSVSYMDWYQQKPRSSPKPWIYATSNLASGVPARFSGSGSGTSYSLTISRVEAEDAATYYCQQWTSNPPTFGSGTKLEIK
modifications: FITC- or Alexa647-labelled in the kinetic assays; label sites not given
notes: Mouse IgG2c hybridoma mAb; FITC- or Alexa647-labeled in the kinetic assays
B1 was tested, and the binding result [1] was “binds”, the binding result [2] was “binds” and the Kd (human CD20 [3]) was 2.65 nM. It also gave a koff (human CD20 [3]) of 6.92e-05 s⁻¹, a kon (human CD20 [3]) of 26100 M⁻¹ s⁻¹ and a Kd (human CD20 [4]) of 1.05 nM. For the same binder, the koff (human CD20 [4]) was 3.91e-05 s⁻¹ and the kon (human CD20 [4]) was 37300 M⁻¹ s⁻¹.
